According to US20230348852A1, “METHODS AND COMPOSITIONS FOR OCULAR CELL THERAPY” (NOVARTIS AG, priority 2020, published 2023):

B1: 9-HEYJA000005: gRNA targeting human B2M; targeting domain SEQ ID NO: 116; sgRNA SEQ ID NO: 167 (nucleic acid)
guide: UCACGUCAUCCAGCAGAGAAGUUUUAGAGCUAGAAAUAGCAAGUUAAAAUAAGGCUAGUCCGUUAUCAACUUGAAAAAGUGGCACCGAGUCGGUGCUUUU
modifications: listed as RNA, chemistry not given here
B2: 4-CR004366: gRNA targeting human B2M; targeting domain SEQ ID NO: 111; sgRNA SEQ ID NO: 162; from Dharmacon (nucleic acid)
guide: CAGUAAGUCAACUUCAAUGUGUUUUAGAGCUAGAAAUAGCAAGUUAAAAUAAGGCUAGUCCGUUAUCAACUUGAAAAAGUGGCACCGAGUCGGUGCUUUU
modifications: listed as RNA, chemistry not given here
notes: gRNA targeting human B2M; from Dharmacon
B3: 8-HEYJA000004: gRNA targeting human B2M; targeting domain SEQ ID NO: 115; sgRNA SEQ ID NO: 166 (nucleic acid)
guide: ACUCACGCUGGAUAGCCUCCGUUUUAGAGCUAGAAAUAGCAAGUUAAAAUAAGGCUAGUCCGUUAUCAACUUGAAAAAGUGGCACCGAGUCGGUGCUUUU
modifications: listed as RNA, chemistry not given here

How the values were obtained:
B2M [1] = test: Targeted PCR and NGS (amplicon sequencing) of on-target and off-target sites in genome-edited LSCs; assay type: cell-based, human; conditions: for validated indels for off-target activity in LSCs: amplicon sequencing of potential off-target loci; for Number of sites positive for off-target activity in LSCs: of the potential off-target loci sequenced; for B2M purified rhAmpSeq indel: purified (B2M negative) LSC populations
Procedure: Potential CRISPR/Cas9-mediated cutting sites identified above were evaluated using targeted PCR and NGS in genome-edited expanded LSCs.
Selected sgRNAs (SEQ ID NO: 120, 162, 166, 167, 171, and 175) were further analyzed by amplicon sequencing in edited and non-edited cells. Primers flanking the potential off-target sites for each guide were used to detect indels by NGS analysis in edited LSCs and non-edited peripheral blood mononuclear cells. Sites that had either (1) a difference in mean indel percentage between edited and unedited cells greater than 0.5%; or (2) a p value less than 0.05 between edited and unedited indel were further analyzed. NGS sequence reads for such sites were assessed for characteristic indel patterns near the putative Cas9 cut site. Based on the results, we could assess the specificity of gRNAs and their suitability for therapeutic applications.

[2] = system: genomic DNA purified from male human peripheral blood mononuclear cells; test: Biochemical assay for potential off-target genomic sites cleaved by Cas9 and B2M guides; conditions: number of potential off-target sites, guide concentration 64 nM
Procedure: A biochemical method (See, e.g., Cameron et al., Nature Methods. 6, 600-606; 2017) was used to determine potential off-target genomic sites cleaved by Cas9 and selected B2M guides. Guides showing B2M indel activity were tested for potential off-target genomic cleavage sites with this assay. […] The number of potential off-target sites detected using a guide concentration of 64 nM in the biochemical assay are shown in Table 10. As a result of this analysis, several gRNAs were selected for analysis of potential off-target activity in limbal stem cells.

human B2M = test: CRISPR/Cas9-mediated deletion of B2M in HEK293 (lipofection, FACS); assay type: cell-based; conditions: lipofection of tracrRNA, gRNA and Cas9 mRNA; FACS after 72 h
Procedure: One day before transfection, 500′000 HEK293cells (ATCC, Manassas, VA) were plated in a 35 mm dish and grown in DMEM/10%FBS. The following day, cells were transfected with a mixture of tracrRNA-gRNA-Cas9 mRNA. A stock of 10 micromolar was prepared resuspending 20 nanomoles of gRNA and 20 nanomoles tracrRNA in 2000 microlitre 10 millimolar Tris buffer pH7.4 each.
The mixture was added drop wise to the culture dish in 2.5 ml DMEM/10%FBS medium. The transfection reagent alone represented the transfection negative control.
After 6 h incubation in 5% CO2 at 37° C. medium was replaced with fresh DMEM/10%FBS medium. After 72 h in a 5% CO2 incubator cells were prepared for FACS analysis. FACS analysis: HEK293 cells were treated with Accutase (ThermoFisher, Cat # A1110501) for 20 minutes in 5% CO2 at 37° C. The reaction was stopped by using cell culture medium containing 10% Serum and transferred to a falcon tube for a centrifugation step (1000 rpm, 5 minutes). After aspirating the medium cells were resuspended in 200 microlitre FACS buffer (PBS/10%FBS).
To analyze the expression of B2M and HLA-ABC, 5 microlitre APC mouse anti-human β2-microglobulin antibody (Biolegend, Cat #316312) and 20 microlitre PE mouse anti-human HLA-ABC antibody (BD Bioscience, Cat # 560168) were added to the cell suspension and incubated for 30 minutes on ice. Cells were washed 3 times after antibody labelling with FACS buffer and resuspended in 500 microlitre in FACS buffer.
Each sample was transferred to one well of a round bottom 96 well plate and analyzed on a BD LSRFortessa X-20 device. FACS data were analyzed using BD FACSDiva software.

B2M [3] = test: sgRNA screening for B2M knockout in LSCs (nucleofection, FACS); assay type: cell-based, human; conditions: Cas9 protein SEQ ID NO: 106, LSCs at passage 3, FACS after around 3 days
Procedure: Cells were cultured under these conditions for 24-48 hours at 37° C. in 5% CO2.
LSCs were nuclofected with selected gRNAs (Table 6) followed by FACS analysis / MACS separation.
After scraping the cells, the reaction was stopped by using cell culture medium containing 10% Serum and transferred to a falcon tube. After counting cells using Vi-cell 300′000 cells were prepared per reaction by transferring 300′000 cells in single tubes and centrifuged at 1000 rpm for 5 min. The supernatant was aspirated using manually pipetting to avoid cell loss and the cells were resuspended in the Stem cell nucleofector solution II (Lonza, Cat #VPH-5022). Resuspend cells in nucleofector solution immediately before adding the Cas9 RNP:sgRNA mixture. To obtain the nucleofection mixture, 5 µg high concentrated (≥5 µg/µl) Cas9 protein of SEQ ID NO: 106 (volume = 0.78 µl) was mixed with 19.5 µg sgRNA of Table 6 (volume = 12.2 µl) and incubated for 20 min at room temperature. […] The Cas9 protein-guideRNA complex was added to the cell suspension and transferred to the electroporation cuvette immediately. Cells were transfected using the nucelofector device (Lonza, Amaxa Nucleofector II) and program A023. After nucleofection cells were transferred from cuvette to one well of a 24 well synthemax coated plate containing pre-warmed LSC medium including 3 µM LATS compound and 10 µM Rock inhibitor Y-27632 (Nature 1997, vol. 389, pp. 990-994). Incubate LSCs in a 5% CO2 incubator for around 3 days until cells are 90% confluent.
LSCs were treated with TryLE®Express Enzym (ThermoFisher, Cat #12605010) for 15 minutes in 5% CO2 at 37° C. After scraping the cells, the reaction was stopped by using cell culture medium containing 10% Serum and transferred to a falcon tube for a centrifugation step (1000 rpm, 5 minutes). After aspirating the medium cells were resuspended in 200 µl FACS buffer (PBS/10%FBS).
To analyze the expression of B2M and HLA-ABC, 5 µl APC mouse anti-human β2-microglobulin antibody (Biolegend, Cat#316312) and 20 µl PE mouse anti-human HLA-ABC antibody (BD Bioscience, Cat # 560168) were added to the cell suspension and incubated for 30 minutes on ice.
Cells were washed 3 times after antibody labelling with FACS buffer and resuspended in 200 µl in FACS buffer (depending on the cell number).
FACS data were analyzed using BD FACSDiva software and FlowJo software.

Row | Molecule | validated indels for off-target activity in LSCs (B2M [1]) | Number of sites positive for off-target activity in LSCs (B2M [1]) | Number of sites positive for off-target activity in LSCs (B2M [1]; listed as SEQ ID NO: 167) | B2M purified rhAmpSeq indel (B2M [1]) | B2M purified rhAmpSeq indel (B2M [1]; listed as SEQ ID NO: 167) | off-target Site_ Count [2] | B2M knockout efficiency in HEK293 (human B2M) | B2M knockout efficiency in LSCs after nucleofection (B2M [3]) | Number of sites positive for off-target activity in LSCs (B2M [1]; listed as SEQ ID NO: 162) | B2M purified rhAmpSeq indel (B2M [1]; listed as SEQ ID NO: 162) | Number of sites positive for off-target activity in LSCs (B2M [1]; listed as SEQ ID NO: 166) | B2M purified rhAmpSeq indel (B2M [1]; listed as SEQ ID NO: 166)
1 | B1 | zero | 0 of 35 | no predicted sites tested positive for off-target activity | 99.80±0.26% | ~ 99% | 35 | 39% | 12% |  |  |  | 
2 | B2 | zero | 0 of 88 |  | 99.85±0.21% |  | 92 | 48% | 22% | no predicted sites tested positive for off-target activity | ~ 99% |  | 
3 | B3 | zero | 0 of 60 |  | 99.95±0.07% |  | 62 | 65% | 22% |  |  | no predicted sites tested positive for off-target activity | ~ 99%
